K half data for one substance are collected here from patent US20150362488.

This series concerns RecQ helicase (Escherichia coli). Particulars: single-molecule hairpin re-zipping blockage (magnetic tweezers); no ATP; Ftest 10 pN; non-specific binding along template.

The substance “mechanically opened DNA hairpin (ssDNA template)” yielded a K half of 0.226 nM.
